Reference: FireProtDB (doi:10.1093/protein/7.9.1089)
Where “and” joins values, the source holds several entries; their conditions need not be identical. Equal entries are not always repeated.

Conditions: Bacillus amyloliquefaciens, pH 4.4, Thermal, DSC, Sodium acetate/Acetic acid 6.08 mM/13.92 mM/, reversible: yes (>95%), whole UniProt chain shown

B1: Ribonuclease wild type, P00648 (protein)
chain: MMKMEGIALKKRLSWISVCLLVLVSAAGMLFSTAAKTETSSHKAHTEAQVINTFDGVADYLQTYHKLPDNYITKSEAQALGWVASKGNLADVAPGKSIGGDIFSNREGKLPGKSGRTWREADINYTSGFRNSDRILYSSDWLIYKTTDHYQTFTKIR
heat capacity change of unfolding (25 °C): 1.6 kcal/mol/K
unfolding free energy (25 °C): 8.69 kcal/mol and 8.66 kcal/mol
Tm: 51.5 °C and 51.6 °C
unfolding enthalpy (calorimetric): 128 kcal/mol
unfolding enthalpy (van 't Hoff): 128 kcal/mol and 129 kcal/mol
